Results as given in US20180155407A1 (Sanofi, published 2018).
Numbered stars: 1 amine (or outer) side, 2 acyl side, 3 side chain; on linkers, the order of the positions; unused ones are H or OH. Square brackets hold non-standard residues; d marks the D form. Side chains are listed from the residue outwards. Ends that are not written are not given here. * marks the point of attachment. γGlu = O=C(O)[C@H](CCC(=O)[*:2])N[*:1]; Palmitoyl = CCCCCCCCCCCCCCCC(=O)*; Aib = CC(C)(N)C(=O)O

T1: human GIP receptor (human, UniProt P48546 22-466)
T1 sequence (looked up): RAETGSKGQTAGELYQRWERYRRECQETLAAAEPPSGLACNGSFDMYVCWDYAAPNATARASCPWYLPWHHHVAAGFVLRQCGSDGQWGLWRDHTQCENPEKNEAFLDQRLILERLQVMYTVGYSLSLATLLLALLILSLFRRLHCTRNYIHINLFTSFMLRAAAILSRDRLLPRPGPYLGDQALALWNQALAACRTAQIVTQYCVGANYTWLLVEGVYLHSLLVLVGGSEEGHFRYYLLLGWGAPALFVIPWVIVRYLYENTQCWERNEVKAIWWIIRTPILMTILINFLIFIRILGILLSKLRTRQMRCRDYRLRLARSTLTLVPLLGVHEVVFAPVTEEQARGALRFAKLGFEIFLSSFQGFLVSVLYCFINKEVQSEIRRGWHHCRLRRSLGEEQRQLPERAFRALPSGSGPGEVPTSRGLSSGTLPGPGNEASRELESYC

B1: SEQ ID NO: 12 (peptide)
peptide: H[Aib]QGTFTSDLSKLK([γGlu-γGlu-Palmitoyl])EKQRQ[Aib]EFIEWLKAGGHPS[Aib]KPPPK-NH2
modifications: N-terminus assumed
SMILES: CCCCCCCCCCCCCCCC(=O)N[C@@H](CCC(=O)N[C@@H](CCC(=O)NCCCC[C@H](NC(=O)[C@H](CC(C)C)NC(=O)[C@H](CCCCN)NC(=O)[C@H](CO)NC(=O)[C@H](CC(C)C)NC(=O)[C@H](CC(=O)O)NC(=O)[C@H](CO)NC(=O)[C@@H](NC(=O)[C@H](Cc1ccccc1)NC(=O)[C@@H](NC(=O)CNC(=O)[C@H](CCC(N)=O)NC(=O)C(C)(C)NC(=O)[C@@H](N)Cc1c[nH]cn1)[C@@H](C)O)[C@@H](C)O)C(=O)N[C@@H](CCC(=O)O)C(=O)N[C@@H](CCCCN)C(=O)N[C@@H](CCC(N)=O)C(=O)N[C@@H](CCCNC(=N)N)C(=O)N[C@@H](CCC(N)=O)C(=O)NC(C)(C)C(=O)N[C@@H](CCC(=O)O)C(=O)N[C@@H](Cc1ccccc1)C(=O)N[C@H](C(=O)N[C@@H](CCC(=O)O)C(=O)N[C@@H](Cc1c[nH]c2ccccc12)C(=O)N[C@@H](CC(C)C)C(=O)N[C@@H](CCCCN)C(=O)N[C@@H](C)C(=O)NCC(=O)NCC(=O)N[C@@H](Cc1c[nH]cn1)C(=O)N1CCC[C@H]1C(=O)N[C@@H](CO)C(=O)NC(C)(C)C(=O)N[C@@H](CCCCN)C(=O)N1CCC[C@H]1C(=O)N1CCC[C@H]1C(=O)N1CCC[C@H]1C(=O)N[C@@H](CCCCN)C(N)=O)[C@@H](C)CC)C(=O)O)C(=O)O
B2: SEQ ID NO: 9 (peptide)
peptide: H[Aib]QGTFTSDLSKLK([γGlu-γGlu-Palmitoyl])EEQRQ[Aib]EFIEWLKAGGPPS[Aib]KPPPK-NH2
modifications: N-terminus assumed
SMILES: CCCCCCCCCCCCCCCC(=O)N[C@@H](CCC(=O)N[C@@H](CCC(=O)NCCCC[C@H](NC(=O)[C@H](CC(C)C)NC(=O)[C@H](CCCCN)NC(=O)[C@H](CO)NC(=O)[C@H](CC(C)C)NC(=O)[C@H](CC(=O)O)NC(=O)[C@H](CO)NC(=O)[C@@H](NC(=O)[C@H](Cc1ccccc1)NC(=O)[C@@H](NC(=O)CNC(=O)[C@H](CCC(N)=O)NC(=O)C(C)(C)NC(=O)[C@@H](N)Cc1c[nH]cn1)[C@@H](C)O)[C@@H](C)O)C(=O)N[C@@H](CCC(=O)O)C(=O)N[C@@H](CCC(=O)O)C(=O)N[C@@H](CCC(N)=O)C(=O)N[C@@H](CCCNC(=N)N)C(=O)N[C@@H](CCC(N)=O)C(=O)NC(C)(C)C(=O)N[C@@H](CCC(=O)O)C(=O)N[C@@H](Cc1ccccc1)C(=O)N[C@H](C(=O)N[C@@H](CCC(=O)O)C(=O)N[C@@H](Cc1c[nH]c2ccccc12)C(=O)N[C@@H](CC(C)C)C(=O)N[C@@H](CCCCN)C(=O)N[C@@H](C)C(=O)NCC(=O)NCC(=O)N1CCC[C@H]1C(=O)N1CCC[C@H]1C(=O)N[C@@H](CO)C(=O)NC(C)(C)C(=O)N[C@@H](CCCCN)C(=O)N1CCC[C@H]1C(=O)N1CCC[C@H]1C(=O)N1CCC[C@H]1C(=O)N[C@@H](CCCCN)C(N)=O)[C@@H](C)CC)C(=O)O)C(=O)O
B3: SEQ ID NO: 10 (peptide)
peptide: H[Aib]QGTFTSDLSKLK([γGlu-γGlu-Palmitoyl])EEQRQ[Aib]EFIEWLKA[dA]GPPS[Aib]KPPPK-NH2
modifications: N-terminus assumed
SMILES: CCCCCCCCCCCCCCCC(=O)N[C@@H](CCC(=O)N[C@@H](CCC(=O)NCCCC[C@H](NC(=O)[C@H](CC(C)C)NC(=O)[C@H](CCCCN)NC(=O)[C@H](CO)NC(=O)[C@H](CC(C)C)NC(=O)[C@H](CC(=O)O)NC(=O)[C@H](CO)NC(=O)[C@@H](NC(=O)[C@H](Cc1ccccc1)NC(=O)[C@@H](NC(=O)CNC(=O)[C@H](CCC(N)=O)NC(=O)C(C)(C)NC(=O)[C@@H](N)Cc1c[nH]cn1)[C@@H](C)O)[C@@H](C)O)C(=O)N[C@@H](CCC(=O)O)C(=O)N[C@@H](CCC(=O)O)C(=O)N[C@@H](CCC(N)=O)C(=O)N[C@@H](CCCNC(=N)N)C(=O)N[C@@H](CCC(N)=O)C(=O)NC(C)(C)C(=O)N[C@@H](CCC(=O)O)C(=O)N[C@@H](Cc1ccccc1)C(=O)N[C@H](C(=O)N[C@@H](CCC(=O)O)C(=O)N[C@@H](Cc1c[nH]c2ccccc12)C(=O)N[C@@H](CC(C)C)C(=O)N[C@@H](CCCCN)C(=O)N[C@@H](C)C(=O)N[C@H](C)C(=O)NCC(=O)N1CCC[C@H]1C(=O)N1CCC[C@H]1C(=O)N[C@@H](CO)C(=O)NC(C)(C)C(=O)N[C@@H](CCCCN)C(=O)N1CCC[C@H]1C(=O)N1CCC[C@H]1C(=O)N1CCC[C@H]1C(=O)N[C@@H](CCCCN)C(N)=O)[C@@H](C)CC)C(=O)O)C(=O)O
B4: SEQ ID NO: 8 (peptide)
peptide: H[Aib]QGTFTSDLSKLK([γGlu-γGlu-Palmitoyl])EEQRQ[Aib]EFIEWLKAGGHPS[Aib]KPPPK-NH2
modifications: N-terminus assumed
SMILES: CCCCCCCCCCCCCCCC(=O)N[C@@H](CCC(=O)N[C@@H](CCC(=O)NCCCC[C@H](NC(=O)[C@H](CC(C)C)NC(=O)[C@H](CCCCN)NC(=O)[C@H](CO)NC(=O)[C@H](CC(C)C)NC(=O)[C@H](CC(=O)O)NC(=O)[C@H](CO)NC(=O)[C@@H](NC(=O)[C@H](Cc1ccccc1)NC(=O)[C@@H](NC(=O)CNC(=O)[C@H](CCC(N)=O)NC(=O)C(C)(C)NC(=O)[C@@H](N)Cc1c[nH]cn1)[C@@H](C)O)[C@@H](C)O)C(=O)N[C@@H](CCC(=O)O)C(=O)N[C@@H](CCC(=O)O)C(=O)N[C@@H](CCC(N)=O)C(=O)N[C@@H](CCCNC(=N)N)C(=O)N[C@@H](CCC(N)=O)C(=O)NC(C)(C)C(=O)N[C@@H](CCC(=O)O)C(=O)N[C@@H](Cc1ccccc1)C(=O)N[C@H](C(=O)N[C@@H](CCC(=O)O)C(=O)N[C@@H](Cc1c[nH]c2ccccc12)C(=O)N[C@@H](CC(C)C)C(=O)N[C@@H](CCCCN)C(=O)N[C@@H](C)C(=O)NCC(=O)NCC(=O)N[C@@H](Cc1c[nH]cn1)C(=O)N1CCC[C@H]1C(=O)N[C@@H](CO)C(=O)NC(C)(C)C(=O)N[C@@H](CCCCN)C(=O)N1CCC[C@H]1C(=O)N1CCC[C@H]1C(=O)N1CCC[C@H]1C(=O)N[C@@H](CCCCN)C(N)=O)[C@@H](C)CC)C(=O)O)C(=O)O
B5: SEQ ID NO: 11 (peptide)
peptide: H[Aib]QGTFTSDLSKLK([γGlu-γGlu-Palmitoyl])EEQRQ[Aib]EFIEWLKA[dA]GHPS[Aib]KPPPK-NH2
modifications: N-terminus assumed
SMILES: CCCCCCCCCCCCCCCC(=O)N[C@@H](CCC(=O)N[C@@H](CCC(=O)NCCCC[C@H](NC(=O)[C@H](CC(C)C)NC(=O)[C@H](CCCCN)NC(=O)[C@H](CO)NC(=O)[C@H](CC(C)C)NC(=O)[C@H](CC(=O)O)NC(=O)[C@H](CO)NC(=O)[C@@H](NC(=O)[C@H](Cc1ccccc1)NC(=O)[C@@H](NC(=O)CNC(=O)[C@H](CCC(N)=O)NC(=O)C(C)(C)NC(=O)[C@@H](N)Cc1c[nH]cn1)[C@@H](C)O)[C@@H](C)O)C(=O)N[C@@H](CCC(=O)O)C(=O)N[C@@H](CCC(=O)O)C(=O)N[C@@H](CCC(N)=O)C(=O)N[C@@H](CCCNC(=N)N)C(=O)N[C@@H](CCC(N)=O)C(=O)NC(C)(C)C(=O)N[C@@H](CCC(=O)O)C(=O)N[C@@H](Cc1ccccc1)C(=O)N[C@H](C(=O)N[C@@H](CCC(=O)O)C(=O)N[C@@H](Cc1c[nH]c2ccccc12)C(=O)N[C@@H](CC(C)C)C(=O)N[C@@H](CCCCN)C(=O)N[C@@H](C)C(=O)N[C@H](C)C(=O)NCC(=O)N[C@@H](Cc1c[nH]cn1)C(=O)N1CCC[C@H]1C(=O)N[C@@H](CO)C(=O)NC(C)(C)C(=O)N[C@@H](CCCCN)C(=O)N1CCC[C@H]1C(=O)N1CCC[C@H]1C(=O)N1CCC[C@H]1C(=O)N[C@@H](CCCCN)C(N)=O)[C@@H](C)CC)C(=O)O)C(=O)O

Legend:
Assay in all cases: cell-based or functional assay
[1] = molecular target: human GLP-1 receptor (human, UniProt P43220 24-463)
[2] = molecular target: human glucagon receptor (human, UniProt P47871 26-477)
[3] = molecular target: T1, human GIP receptor

Chain of human glucagon receptor (P47871 26-477): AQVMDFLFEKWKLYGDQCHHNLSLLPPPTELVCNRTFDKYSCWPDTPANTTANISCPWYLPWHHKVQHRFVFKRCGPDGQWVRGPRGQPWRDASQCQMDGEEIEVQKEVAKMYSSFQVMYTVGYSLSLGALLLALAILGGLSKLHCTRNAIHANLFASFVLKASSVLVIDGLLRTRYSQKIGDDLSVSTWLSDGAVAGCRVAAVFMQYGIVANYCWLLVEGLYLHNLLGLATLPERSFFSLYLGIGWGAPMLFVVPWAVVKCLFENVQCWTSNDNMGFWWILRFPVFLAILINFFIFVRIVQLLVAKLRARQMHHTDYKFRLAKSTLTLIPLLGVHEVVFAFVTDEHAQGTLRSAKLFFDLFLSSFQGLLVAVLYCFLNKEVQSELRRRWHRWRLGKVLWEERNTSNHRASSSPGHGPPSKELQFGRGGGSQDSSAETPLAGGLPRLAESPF

Binder | EC50 hGLP-1R (cAMP formation) [1] | EC50 hGlucagon R (cAMP formation) [2] | EC50 hGIP R (cAMP formation) [3]
B1 | 2.7 pM | 22 pM | 15.8 pM
B2 | 2.6 pM | 24.7 pM | 5.6 pM
B3 | 2.4 pM | 26.1 pM | 5.4 pM
B4 | 2.2 pM | 32.6 pM | 5.6 pM
B5 | 2.3 pM | 22.4 pM | 3.5 pM
